Results as given in patent US20050260730A1, “CDK2/cyclin A crystals and uses thereof” (priority 2003, published 2005).
pIC50: −log10 of the molar value. Non-standard residues stand in square brackets, D forms with d. Phe(4-F) = N[C@@H](Cc1ccc(F)cc1)C(=O)O

Target: cyclin A (human) (UniProt P20248)
Assay: competitive cyclin A binding assay

pIC50: 4.72
Substance: H-RRL[Phe(4-F)]-NH2
